Measurements as given in the nanobody polyreactivity screen of Harvey et al. (2022).

Assay: yeast display, Sf9 membrane polyspecificity reagent, FACS + sequencing; frameworks hold sequencing errors
Summary of the method: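 Genes from sorted yeast were amplified by colony PCR, read by MiSeq 2 × 250 sequencing and filtered on CDR length. These cells carried a synthetic nanobody library in Saccharomyces cerevisiae BJ5465 and were sorted by FACS into low and high (top ~1%) gates on anti-HA and streptavidin fluorescence. Polyreactivity is labelled according to the gate of origin.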

Sequence	polyreactivity (PSR sort gate)
QVQLVESGGGLVQAGGSLRLSCAASGSTLAGYAMGWYRQAPGKERELVAAIDWTGGSTTYADSVKGRFTISRDNAKNTVYLQMNSLKPEDTAVYYCNVDLGVNGDYWGQGTQVTVSS	low polyreactivity
QVQLVESGGGLVQAGGSLRLSCAASGRTFLLNAMGWYRQAPGKERELVATITYSGGITYYADSVKGRFTISRDNAKNTVYLQMNSLKPEDTAVYYCSTSGPQYYSRNFDYWGQGTQVTVSS	low polyreactivity
QVQLVESGGGLVQSGGSLRLSCAASGSTFSINPMGWYRQAPGKERELFAAITWRGVRTYYADSVKGRFTISRDNAKNTVYFQMNSLKPEDTAVYYCAADVVVAGHPGFDYWGQGTQVTVSS	high polyreactivity
QVQLVESGGGLVQAGGSLRLSCAASGSTFDIYAMGWYRQAPGKERELVAAITSGGSTYADSVKGRFTISRDNAKNTVYLQKNSLKPVETAVYYSNADRWFGNYRHLTFLNDYWGQGTQVTVSA	low polyreactivity
QVQLVESGGGLVQAGGSLRLSCAASGLIFYRYAMGWYRQAPGTERELVAVITRSGCNTNYADSVKGRFTISRDNAKNTVYLQMNSLKPEDTEVYYCDTRGIWKKVPYYYWGQGTQVTVSS	low polyreactivity
QVQLVESGGGLVQAGGSLRLSCAASGFTFYRYAMGWYRQAPGKERELVAAISWRGTSTYYADSVKGRFTISRDNAKNTVYLQMNSLKPEDTAVYYCAAPRNFGPYTSPRQPLYNYWGQGTQVTVSS	high polyreactivity
QVQLVESGGGLVQAGGSLRISCAASGRIFEVYDMGWYRQAPGKERELVAAISESDDNTYYADSVKGRFTISRDNAKNTVYLQMNSLKPEDTEVYYCNADVPGDTGWWGFDYWGQGTQVTVSS	low polyreactivity
QVQHVESGGGLVQAGGSLRLSCAASGSIFTTYAMGWYRQAPGKERELVAAISSGGGTNYADSVKGRFTISRDNAKHTVYLQMNSLKPEDTAVYYCNKRYYRLQLHNAYGATPRRNYWGQGTQVTVSS	low polyreactivity
QVQLVESGGGLVQAGGSLRLSCAASGSIFLRNAMGWYRQAPGKERELVAAITKRGGSTYYADSVKGRFTISRDNAKNTVYLQMNSLKPEDTAVYYCNVDTYANTAFVRKPMYYWGQGTQVTVSS	low polyreactivity
QVQLLESGGGLVQARGSLRISCAASGLTFFFYAMGWYRQAPGKERELVAAISFSGGSTYADSVKGRFTISRDNAKNTVYLQMNSLKPEDTAVYYCNAPPQFATFTYANWRQGTQVTVSS	low polyreactivity
QVQLVESGGGLVQAGGSLRLSCAASGLIFRWYDMGWYRQAPGKDRELVAAITRGGGTNYADSVKGRFTLSRDNAKNTVYLQMNSLKPEDTAVYYCAARLIKYGRAWTFGGYDYWGQGTQVSVSS	high polyreactivity
QVQLVESGGGLVQAGGSLRLSCAASGSTFLYYAMGWYRQAPRKESELVATITDGGSTNYSDSVKGRFTISRDNAKNTVDLQMNSLKPEDTAVYYCAKRQWRPTYRYGYWGQGTQVTVSS	low polyreactivity
QVQLVESGGGLVQSGCSLRLSCAASGSTFYRYAMGWYRQAPGKERELVAAITSAGSTNYADSVKGRFTISRDNAKNTVYLLMNSLKPEDTAVYYCAADHGRPYFSYDYWGQGTQVTVSS	low polyreactivity
QVQLVESVGGLDQAGGSLRLSCAASGSTFRYYVMGWYRQAPGKERELVAGITRGGSTNYADSVKGRFTISRENAKNTVYLQMNSLKPEDTAVYYCASRGGWKRPFGYQLQYDYWGQGTQLTVSS	high polyreactivity
QVQLVESGGGLVQAGGSLRLSCAASGRTFVTYAMGWYRPAPGKERELVAAITGSGGRTYYADSVKGRFTISRDNAKLTVYLQMNRLKPEDTAVYYCAKDHPSGRQYDYWGQGTQVTVSS	high polyreactivity
QVQLQESGGGLVQAGGSPRLSCAASDNIFPDSLMCWYRQAPGKERELVATIGFGATTNYEDSVKGRFTISRDNAKNTVYLQMNSLNPEDTALYYCAAVPLNYEYFCYWGQGTQVTVSS	low polyreactivity
QVQLVESGRRLVQAGGSLRLSCAASGRIFGAYARGWSRQAPGKEREMVAAITSRGGNTYYADSVKGRFTISRDNAKNTVYLQMNSLKPEDTAVYYCRYDIWVWWSGAYDYWGQGTQVTVSS	low polyreactivity
QVQLVESGGGLVQAGGSLRLSCAASGRIFFKNAMGWYRQAPGKERELVAGISWSGGRTYYADSVKGRFTISRDNAKNTVYLQMNSLKPEDTAVYYCNAGSSFYRSLRYEYWGQGTQVTVSS	high polyreactivity
QVQLVESGGGLVQAGGSLRLSCAASGRIFYPYSMGWYRQAPGKERELVASINYRGGSTYYADSVNGRFTISRDNAKNTVYLQMNSLKPEDTAVYYCNAVRGFYRYSSSMGYWGQGTQVTVSS	high polyreactivity
QVQLVESGGGLVQAGGSLRLSCAASGTFRRYPMGWYRQEPGKERELVAAITSSGGTYYADSVKGRFTISRDNAKHTVYLQMNSLKPEDTALYYCAARDYWSRYFRPGIVGWHDYWGQGTQVTVSS	high polyreactivity
QVQLVESGARLVQAGGSLRLSCAASGFIFRAYTMGWYRQAPGKERELVAAITSSGGRTYYADSVKGRFTISRDNAKNTVYLQMNSLKPEDTAVYYCATVDAKWKQFDYWGQGTQVTVSS	high polyreactivity
